# Laboratory results reported in the supplement of paper PMC12042874.
# ± gives the uncertainty stated by the source.
# Experiment: amyloid nucleation score (Sup35N fusion, yeast selection) (log enrichment); library NNK1; higher = more nucleation; inactive = no reads after selection
# How it was run: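 Plasmid inserts were Illumina-sequenced at input and output from psi-negative yeast expressing Sup35N fused to peptides of 20 random codons. The yeast were induced with 100 μM copper sulfate for 24 hours and grown 7 days at 30°C on medium lacking adenine and uracil, and sequences with under 100 input reads were excluded. Nucleation score is the DiMSum log enrichment of output over input reads, centred on the mode score of non-aggregating sequences.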
row,Substance,amyloid nucleation score
1,QRCTIYRSSI,inactive
2,LCSMWEGRGADEMLAICQGA,0.152 ± 0.59
3,IKYLSYDVNPPLWFVYNFSF,6.29 ± 0.084
4,IKWTLLDG,0.871 ± 0.47
5,CRNVRQSCGYIYYCSRKHLA,0.546 ± 0.49
6,YFIPEFSTCVMWRSNNTGKY,-0.211 ± 1.2
7,QTGKRYGTFLGYDGLEGRPD,-0.502 ± 0.55
8,CSDSVGSIYSHVRSGGLE,inactive
9,CVSGVDLYRGSLGACGW,inactive
10,YIGRGNMHELFHRLLRGCVL,inactive
11,SVHKWSSKTAMSLRTTYK,0.284 ± 0.69
12,TFKKWMRIVYNLISKLKSRH,2.98 ± 0.081
13,LSFMMRGSIHWPLTTLRACS,1.05 ± 0.6
14,GIQLTVFGLLLCFGTGLKVF,0.078 ± 0.6
15,ECMVYDYNYWVHVYGITYCC,0.242 ± 0.35
16,DALYLFWVMGRMVRDRV,0 ± 0.63
17,QKDSTPISGWFSFYMSVPFK,inactive
18,KVGLDIWGASGTN,0.525 ± 0.48
19,LAGNVS,0.503 ± 0.67
20,LSHGSIQMVYPELR,-0.829 ± 1.6
21,SCDYGL,0.512 ± 0.63
22,RQFIELKCLFPMADVIVF,0.315 ± 0.38
23,VVVFSNYNFVGKCIHVNSEL,7.351 ± 0.07
24,KKVSLRLSSAVILSANSAML,-0.258 ± 0.54
25,EVITNTNGIVWSFDELYSVM,inactive

row,Substance,amyloid nucleation score
1,MVVFDRRGLSYPVS,0.556 ± 0.52
2,EQRKRDHSRASSVSLKRYMG,0.657 ± 0.53
3,GRFRSTTVWFWVLDVLYGCS,0.547 ± 0.29
4,VEFFFDF,-0.417 ± 0.77
5,YYSLAVLTSLRARKSTVFND,-1.16 ± 0.78
6,FLLLFDQFSVLMCCAQVLCL,4.56 ± 0.058
7,MMLCSYKWVF,0.1 ± 0.24
8,VAFLTKNCYEFDDTVRTCAV,-0.569 ± 0.42
9,VWTDGGSYFRDLNRICGV,3.74 ± 0.084
10,FPLCSCHCYSSTWMCYRASL,0.048 ± 0.97
11,MENAGTSVIPRRYIWTPKPV,0.923 ± 0.76
12,KGANADAYGRGYNAVFMLEW,-1.39 ± 1.2
13,SDMLK,0.324 ± 0.43
14,LEMVINSFRELSLAY,-0.212 ± 0.46
15,MIPKNFLGGNPLQRRESPIC,0.828 ± 0.62
16,CTYNLTCLWHMELNSSMIMR,5.37 ± 0.061
17,LKHRRSWYLTYIDCAGM,-0.294 ± 0.43
18,FAYRL,0.404 ± 0.44
19,ALYSQGSSTV,-1.15 ± 1.1
20,YFVQGNMNLSHCTCWCGNRT,7.589 ± 0.046
21,GPFGLGSMSGSIKWRYHVCC,0.528 ± 0.43
22,ALTVTCFLVPGSYIIHVGMK,-0.332 ± 0.37
23,HSGTSCWVGIIDV,-0.248 ± 0.28
24,FACYLNHAGGVSAHKYIFVT,0.351 ± 0.37
25,TSENLNSASNLSSYVADMPI,0.273 ± 0.35

row,Substance,amyloid nucleation score
1,VIRFSGVLCMIDL,5.09 ± 0.071
2,KLGGFVFGANVCCEDLSYEF,0.984 ± 0.55
3,DAMHCCKTDYYIIGISGPSD,0.732 ± 0.68
4,TGSQLWHIIFRC,0.214 ± 0.24
5,ISLYVSNYRAYDKSPLGEDW,0.398 ± 0.74
6,AMPADIILVVGLSCDDRREG,0.724 ± 0.52
7,EINESRLYYNSLQAFAFMWA,-0.823 ± 0.57
8,SVYPLF,-0.268 ± 0.28
9,LGVVFGRRVHCRLASSVMNM,-0.723 ± 1.5
10,SFNKDRKIYTRPELRFMMFL,-0.707 ± 1.7
11,RFSKNE,0.523 ± 0.87
12,IYNGVTGRYWTSHI,-0.989 ± 0.7
13,IYVYVLSMMCPSEDR,0.201 ± 0.84
14,NFYTFFQTRGFLSLSACALR,-1.12 ± 2.7
15,LFSLNTLCM,0.985 ± 0.51
16,LFRYNDWCAYHLPSPWWGNR,0.112 ± 0.83
17,ISINLRLVRHRGWGNISCWR,2.2 ± 0.33
18,FCTCSLKQVM,inactive
19,SYQVRDVIKSF,4.52 ± 0.1
20,YSVMSSRSGIVGSWVHRGVQ,0.38 ± 0.32
21,PYKGIVMFVSGPP,-0.068 ± 0.54
22,AVSIRCFGRMMTLSGSKIAG,0.838 ± 0.25
23,RTPFFKRICK,-0.303 ± 0.69
24,RVPATLNLLGVRQGRD,0.26 ± 0.72
25,YFFITRAEVSDVVLLLCVCC,-0.158 ± 0.82

row,Substance,amyloid nucleation score
1,YTCYIVKGLVVLTVACGG,-0.225 ± 0.98
2,YCASFRINVIFV,3.79 ± 0.086
3,VSRTLAWLGMSRLNGSYGVC,-0.197 ± 0.41
4,PRWSLCIPSVLSGVITTIMT,0.286 ± 0.27
5,FCLNLQYRSKMMHRANICL,0.159 ± 0.17
6,RWCWWFFSSYAFFRSNISWV,-0.197 ± 0.42
7,LYGGNSRFRLSSYRYGMFWN,inactive
8,KGDMWMGPNESWVKVNLYRV,0.039 ± 0.55
9,VFRTISYRV,0.039 ± 0.69
10,FMVKHSDDRGYLCFLGIEKV,0.209 ± 0.93
11,WGLSQSLCHSRNNLHNWISG,0.207 ± 0.53
12,FSPRIALVFRKYQGMASQPP,4.45 ± 0.061
13,VYFYVQPNGFMEIGASMIAA,-0.431 ± 1.4
14,CGDMKRSHGCYFGPRNRFCW,0.517 ± 0.47
15,AISAYELSRIRVQS,0.487 ± 0.55
16,CMVMFCCWNMWVDSVH,7.237 ± 0.069
17,PRGLVWNVPRLSKTVASILF,-0.942 ± 0.73
18,GKQHSLS,-1.44 ± 1.9
19,ADGWFQFWRGKYFGGRFQFT,-0.166 ± 0.61
20,LGPDSLHLFGMVGSGRLNIL,-0.029 ± 0.88
21,NAVTFLHIVLRENNHGRMHK,6.21 ± 0.073
22,PALWDLCVPKLIVANLIERS,-1.1 ± 1.4
23,ALNGSNRIIACTIIWCVVW,2.51 ± 0.18
24,LFYDDEES,inactive
25,KNQKMVYTRIGLPGFG,-0.42 ± 0.56

row,Substance,amyloid nucleation score
1,SMWVWMHICEAMG,4.6 ± 0.11
2,LKHPDIYRKVERKVRVNMFF,-0.792 ± 0.31
3,GQTITP,-0.689 ± 1
4,TVGMRYFVWVKGSKTKREER,0.674 ± 1.2
5,YLFMNRGTVSWRSVYDRV,0.104 ± 0.42
6,LGLRGKKLRIINAPYTTGRN,-0.64 ± 0.98
7,HSDVHNCFLLCRCTGYCLYS,3.96 ± 0.16
8,LSLDRNVATHKGSYPEWDNF,0.752 ± 0.23
9,ESSLLLLDLGELRCYTFCLV,-0.944 ± 0.94
10,WSRYNSPCSKSMRYRSVSEA,-1.37 ± 1.1
11,VPWFLHELQTVLAKVNRGQR,-0.165 ± 0.33
12,YLIWLLGFANILYHYTL,inactive
13,WTRIDSSVYARKGFCAPRLP,0.021 ± 1.1
14,TRHFLSIVLLEL,1.78 ± 0.28
15,MTEQAQ,0.286 ± 1.4
16,CTQGCHRVNWSVTYRVVFLA,0.848 ± 0.42
17,DEDNFVRSHVNPLYLTSADD,0.609 ± 0.83
18,SYVRLFERFWVNFRSHMGNC,0.014 ± 0.52
19,IRSEDKITFPGLCKSRLELV,0.845 ± 0.67
20,KWCISKSFFVYPTMMR,0.437 ± 0.44
21,TGGFIFHGCAFYRMFSWLVD,0.849 ± 1.1
22,VSFYGGFGKK,-0.116 ± 0.64
23,YAFRSRHRSFSFIGTLMVFD,0.55 ± 0.5
24,KCLIYGKFIVRCVPINV,-0.088 ± 0.59
25,KSWWNDVFVYVYQILEFHCR,0.032 ± 1.2

row,Substance,amyloid nucleation score
1,TYRCR,0.624 ± 0.53
2,IMVCN,-0.197 ± 0.42
3,GALVCRCDGCYKSMGKAIMA,-0.243 ± 0.56
4,WSKYVESVRVETVGQVFQLV,-0.009 ± 0.51
5,VRAEVGQDRVGRM,0.09 ± 0.44
6,FRKEMIFYS,1.54 ± 0.47
7,SLSTVNRKAV,-0.637 ± 0.57
8,YVFLRFVSVCSYN,4.9 ± 0.05
9,VCRPYVRLSPGGM,-1.27 ± 2.7
10,RSRAISIKWCIGVGHPGNWV,inactive
11,QDDISLKFLGFGMIVSLIMF,0.007 ± 0.24
12,LFDDS,-0.356 ± 0.46
13,AVCVMWANGLVYMTSLECER,-0.679 ± 0.35
14,VTNFNESLGKFSRNTLLRS,-0.713 ± 1.1
15,SYRHSSTSCKFGYVYRFTCL,1.19 ± 0.41
16,NKSNSLYGSLKWGDRAYSSY,-1.31 ± 0.71
17,NLGVKDLNTI,-0.905 ± 0.4
18,SSVYVRLVMGF,1.77 ± 0.61
19,EMCFGLFGKLVWCETWLVKA,0.344 ± 0.32
20,MYRYLPNSTLLSRVLDTSSY,inactive
21,SHGRMCQLEYWSLRKGRGAG,0.229 ± 0.59
22,IMEGR,5.73 ± 0.1
23,LNINSKYLNLICYHIRHLAV,-0.593 ± 0.78
24,VFFKKAIIFRSKV,0.318 ± 0.33
25,YSRSVGYRRYFI,inactive

row,Substance,amyloid nucleation score
1,LYFRIGYSMLIATDVGFGDL,-2.74 ± 1.8
2,GLQSKV,-0.974 ± 2.4
3,RRCLSIPLVCFRDKNMNMGF,-0.246 ± 0.46
4,CLIYYVYSRWIIPMYITGRR,-0.27 ± 0.81
5,ESWAITWVGLYGCTLTVIRN,-0.148 ± 0.47
6,WVWKTNWWYTRRIASLWDSR,1.7 ± 0.56
7,CMSVVNLRCPDRTLVSLLPY,-0.326 ± 1.1
8,IWWFSTFVRRRRAAVKVHKA,inactive
9,IDLGFLNKCLCRNSCCVGEA,1.81 ± 0.17
10,VFSFLPSYGHKCTAKQFFSA,-0.3 ± 1.4
11,VSCIV,0.198 ± 0.58
12,ICCVVESLCYSVMFKHIS,4.55 ± 0.079
13,YEGELTSKKFFAQVNSRVGG,-0.581 ± 1.4
14,HVHRIN,-0.717 ± 1.1
15,CFRYVCIILMSVLMNYNFVY,-0.05 ± 0.2
16,QNFWALGPIRRIYFVNVITN,7.315 ± 0.06
17,NGRTLINQYESLEATGICTV,0.684 ± 0.78
18,WGIPMVGSRGPMCTKVGFRK,0.141 ± 0.35
19,WGWHNYWDGSVVVWRSATAH,-0.414 ± 0.75
20,VYKRFSTTMCLMTSSEWVDS,2.45 ± 0.068
21,FADLK,-0.88 ± 1.7
